Consider one substance from publication PMC7237485.

This assay deals with HA-tagged WT WD40 (FBW7ΔDF) (human) (UniProt Q969H0).

“Merkel cell polyomavirus small T antigen, wild type (natural protein)” displayed an LT protein turnover (t1/2) in a cycloheximide chase, 293 cells co-transfected with LT and sT; FBW7 is that of the cells, not the ΔDF construct above 10 h.
